# Source: patent US20200024358A1 (published 2020)
# T1: Human BCMA labelled with a fluorescent dye (human, UniProt Q02223 1-54, limits assumed, labelled with a fluorescent dye (dye and site not stated))
# T1 construct: also called fluorescently labeled BCMA
# T1 sequence (looked up): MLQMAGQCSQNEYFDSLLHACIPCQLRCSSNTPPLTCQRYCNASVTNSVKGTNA
# Experiments:
# [1] = biological target: T2, recombinant human CD3 epsilon His-tag protein (Novoprotein, Cat. No. C578) (human, UniProt P07766 23-126); assay: dual-binding ELISA: BCMA Fc coated, then CD3 epsilon His, anti-His detection
# T2 construct: Bought protein; not shown: His-tag
# T2 sequence (P07766 23-126): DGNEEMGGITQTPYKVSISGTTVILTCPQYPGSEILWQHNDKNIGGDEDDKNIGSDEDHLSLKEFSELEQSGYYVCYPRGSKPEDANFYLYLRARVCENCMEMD
# [2] = biological target: T1, Human BCMA labelled with a fluorescent …; assay: MicroScale Thermophoresis, labelled BCMA at 2 nM
# Experimental: Human BCMA was labelled with a fluorescent dye and kept at a constant concentration of 2 nM. […] The samples were analyzed on a Monolith NT.115 Pico at 25° C., with 5% LED power and 40% Laser power.
# [3] = biological target: T3, extracellular domain of human PD-L1 (Example 8) (human, UniProt Q9NZQ7 19-238); assay: competition ELISA in solution (Friguet), Scatchard plot
# T3 construct: extracellular domain; also called PD-L1 antigen; immobilized PD-L1
# T3 sequence (Q9NZQ7 19-238): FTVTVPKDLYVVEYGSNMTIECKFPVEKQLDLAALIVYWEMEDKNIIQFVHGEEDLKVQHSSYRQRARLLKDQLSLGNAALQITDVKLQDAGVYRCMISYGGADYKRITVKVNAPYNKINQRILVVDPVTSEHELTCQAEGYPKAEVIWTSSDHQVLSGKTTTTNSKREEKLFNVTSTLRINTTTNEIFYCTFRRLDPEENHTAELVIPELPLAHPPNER
# Experimental: First, mixtures of the trispecific antibody (Ab) at a fixed concentration and the PD-L1 antigen (Ag) at varying concentrations were incubated for sufficient time to reach equilibrium. Then the concentration of trispecific antibody, which remained unsaturated at equilibrium (not associated with PD-L1 antigen), was measured by a classical indirect ELISA using PD-L1 coated plates. […] The Kd was calculated from a Scatchard plot using the following equation:
# [4] = biological target: T3, extracellular domain of human PD-L1 …; assay: Kinetic Exclusion Assay (KinExA 3200), 1:1 model
# Experimental: (§1) Studies were designed to measure the free antibody in samples with a fixed antibody concentration and different concentrations of antigen PD-L1 at equilibrium, reaction mixtures were performed in PBS (pH 7.4) with 1 mg/ml BSA. […] The equilibrium titration and kinetics data were fit to a 1:1 reversible binding model using KinExA Pro software (version 4.2.10; Sapidyne Instruments) to determine the Kd.
# [5] = biological target: T3, extracellular domain of human PD-L1 …; assay: Kinetic Exclusion Assay (KinExA 3200)
# Experimental: as §1
binder,measurement,setting,value
"CDR1-007 (other, also called CDR-007; trispecific CDR1-007) heavy: QIQLVQSGPELKKPGETVKISCKASGYTFTDYSINWVKRAPGKGLKWMGWINTETREPAYAYDFRGRFAFSLETSASTAYLQINNLKYEDTATYFCALDYSYAMDYWGQGTSVTVSSASTKGPSVFPLAPSSKSTSGGTAALGCLVKDYFPEPVTVSWNSGALTSGVHTFPAVLQSSGLYSLSSVVTVPSSSLGTQTYICNVNHKPSNTKVDKRVEPKSCGGGGSEIVMTQSPSTLSASVGDRVIITCQASEDIYSLLAWYQQKPGKAPKLLIYDASDLASGVPSRFSGSGSGAEFTLTISSLQPDDSATYYCQGNYGSSSSSSYGAVFGQGTKLTVLGGGGGSGGGGSGGGGSGGGGSEVQLVESGGGSVQPGGSLRLSCTVSGIDLSSYTMGWVRQAPGKGLEWVGIISSGGRTYYASWAKGRFTISRDTSKNTVYLQMNSLRAEDTATYYCARGRYTGYPYYFALWGQGTTVTVSS light: DIVLTQSPASLAMSLGKRATISCRASESVSVIGAHLIHWYQQKPGQPPKLLIYLASNLETGVPARFSGSGSGTDFTLTIDPVEEDDVAIYSCLQSRIFPRTFGGGTKLEIKRTVAAPSVFIFPPSDEQLKSGTASVVCLLNNFYPREAKVQWKVDNALQSGNSQESVTEQDSKDSTYSLSSTLTLSKADYEKHKVYACEVTHQGLSSPVTKSFNRGECGGGGSAVVTQEPSLTVSPGGTVTLTCGSSTGAVTTSNYANWVQQKPGKSPRGLIGGTNKRAPGVPARFSGSLLGGKAALTISGAQPEDEADYYCALWYSNHWVFGGGTKLTVLGGGGGSGGGGSGGGGSGGGGSEVQLVESGGGSVQPGGSLRLSCAASGFTFSTYAMNWVRQAPGKGLEWVGRIRSKANNYATYYADSVKGRFTISRDDSKNTLYLQMNSLRAEDTATYYCVRHGNFGDSYVSWFAYWGQGTTVTVSS",binding result,[1],binds
same,Kd,[2],8.5 to 9.9 nM
same,Kd,[3],0.11 nM
same,Kd,[4],0.0217 to 0.042 nM
"CDR1-017 (other, also called trispecific CDR1-017) heavy: QIQLVQSGPELKKPGETVKISCKASGYTFTDYSINWVKRAPGKGLKWMGWINTETREPAYAYDFRGRFAFSLETSASTAYLQINNLKYEDTATYFCALDYSYAMDYWGQGTSVTVSSASTKGPSVFPLAPSSKSTSGGTAALGCLVKDYFPEPVTVSWNSGALTSGVHTFPAVLQSSGLYSLSSVVTVPSSSLGTQTYICNVNHKPSNTKVDKRVEPKSCGGGGSEIVMTQSPSTLSASVGDRVIITCQASEDIYSLLAWYQQKPGKAPKLLIYDASDLASGVPSRFSGSGSGAEFTLTISSLQPDDSATYYCQGNYGSSSSSSYGAVFGQGTKLTVLGGGGGSGGGGSGGGGSGGGGSEVQLVESGGGSVQPGGSLRLSCTVSGIDLSSYTMGWVRQAPGKGLEWVGIISSGGRTYYASWAKGRFTISRDTSKNTVYLQMNSLRAEDTATYYCARGAYTGYPYYFALWGQGTTVTVSS light: DIVLTQSPASLAMSLGKRATISCRASESVSVIGAHLIHWYQQKPGQPPKLLIYLASNLETGVPARFSGSGSGTDFTLTIDPVEEDDVAIYSCLQSRIFPRTFGGGTKLEIKRTVAAPSVFIFPPSDEQLKSGTASVVCLLNNFYPREAKVQWKVDNALQSGNSQESVTEQDSKDSTYSLSSTLTLSKADYEKHKVYACEVTHQGLSSPVTKSFNRGECGGGGSAVVTQEPSLTVSPGGTVTLTCGSSTGAVTTSNYANWVQQKPGKSPRGLIGGTNKRAPGVPARFSGSLLGGKAALTISGAQPEDEADYYCALWYSNHWVFGGGTKLTVLGGGGGSGGGGSGGGGSGGGGSEVQLVESGGGSVQPGGSLRLSCAASGFTFSTYAMNWVRQAPGKGLEWVGRIRSKANNYATYYADSVKGRFTISRDDSKNTLYLQMNSLRAEDTATYYCVRHGNFGDSYVSWFAYWGQGTTVTVSS",Kd,[3],26 nM
same,fold difference in affinity against CDR1-007 (WT),[5],~1000 fold
